# Biological target: T1, human IL-17A (IL-17AA homodimer) (human, UniProt Q16552 20-155, limits assumed)
# T1 construct: also called hIL-17A; hIL-17AA
# Experiment: ELISA, cytokine coated on plate, binder titrated, HRP secondary antibody
# T1 sequence (Q16552 20-155 limits assumed): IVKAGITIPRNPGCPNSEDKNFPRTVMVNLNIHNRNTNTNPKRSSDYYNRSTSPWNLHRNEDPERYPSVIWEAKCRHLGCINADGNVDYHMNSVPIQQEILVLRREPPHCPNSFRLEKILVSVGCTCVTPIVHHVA
row,EC50 [µg/mL],Binder
1,0.0106,"T1-T4-11 (Fc fusion, also called T1c-Fc-T4d; IL-17RA/RC-Fc-TNFR2) LRLLDHRAPVCSQPGLNCTVKNSDCLDDSWIHPRNLTPSSPKDLQIQLHFAHTQQGDLVPVAHIEWTLQTDASILYLEGAELSVLQLDTNERLCVRFEFLSKLRHHHRRWRFTFSHFVVDPGQEYEVTVHHLPKPIPDGDPNHQSKNFLVPDCEHPRMKVTTPCMSSALPWLNVSADGDNVHLVLNVSEEQHFGLSLYWNQVQGPPKPRWHKNLTGPQIITLNHTDLVPCLCIQVWPLEPDSVRTNICPFREDPRAHQNLWQAARLRLLTLQSWLLDAPCSLPAEAALCWRAPGGDPCQPLVPPLSWENVTVDKVLEFPLLKGHPNLCVQVNSSEKLQLQECLWADSLGPLKDDVLLLETRGPQDNRSLCALEPSGCTSLPSKASTRAARLGEYLLQDLQSGQCLQLWDDDLGALWACPMDKYIHKTGIEGRMDRNTGRGGEEKKKEKEKEEQEERETKTPECPSHTQPLGVFLFPPKPKDTLMISRTPEVTCVVVDVSQEDPEVQFNWYVDGVEVHNAKTKPREEQFNSTYRVVSVLTVLHQDWLNGKEYKCKVSNKGLPSSIEKTISKAKGQPREPQVYTLPPSQEEMTKNQVSLTCLVKGFYPSDIAVEWESNGQPENNYKTTPPVLDSDGSFFLYSRLTVDKSRWQEGNVFSCSVMHEALHNHYTQKSLSLSLGKGGGGSGGGGSGGGGSLELPAQVAFTPYAPEPGSTCRLREYYDQTAQMCCAKCPPGQHAKVFCTKTSDTVCDSCEDSTYTQLWNWVPECLSCGSRCSSDQVETQACTREQNRICTCRPGWYCALSKQEGCRLCAPLSKCRPGFGVARPGTETSDVVCKPCAPGTFSNTTSSTDICRPHQICSVVAIPGNASMDAVCTSTSPTRSMAPGAVHLPQPVSTRSQHTQPTPEPSTAPSTSFLLPMGPSPPAEGSTGD"
2,0.0087,"T1-T4-09 (Fc fusion, also called T1-T4-9; T1c-Fc-T4b) LRLLDHRAPVCSQPGLNCTVKNSDCLDDSWIHPRNLTPSSPKDLQIQLHFAHTQQGDLVPVAHIEWTLQTDASILYLEGAELSVLQLDTNERLCVRFEFLSKLRHHHRRWRFTFSHFVVDPGQEYEVTVHHLPKPIPDGDPNHQSKNFLVPDCEHPRMKVTTPCMSSALPWLNVSADGDNVHLVLNVSEEQHFGLSLYWNQVQGPPKPRWHKNLTGPQIITLNHTDLVPCLCIQVWPLEPDSVRTNICPFREDPRAHQNLWQAARLRLLTLQSWLLDAPCSLPAEAALCWRAPGGDPCQPLVPPLSWENVTVDKVLEFPLLKGHPNLCVQVNSSEKLQLQECLWADSLGPLKDDVLLLETRGPQDNRSLCALEPSGCTSLPSKASTRAARLGEYLLQDLQSGQCLQLWDDDLGALWACPMDKYIHKTGIEGRMDRNTGRGGEEKKKEKEKEEQEERETKTPECPSHTQPLGVFLFPPKPKDTLMISRTPEVTCVVVDVSQEDPEVQFNWYVDGVEVHNAKTKPREEQFNSTYRVVSVLTVLHQDWLNGKEYKCKVSNKGLPSSIEKTISKAKGQPREPQVYTLPPSQEEMTKNQVSLTCLVKGFYPSDIAVEWESNGQPENNYKTTPPVLDSDGSFFLYSRLTVDKSRWQEGNVFSCSVMHEALHNHYTQKSLSLSLGKGGGGSGGGGSGGGGSLELPAQVAFTPYAPEPGSTCRLREYYDQTAQMCCAKCPPGQHAKVFCTKTSDTVCDSCEDSTYTQLWNWVPECLSCGSRCSSDQVETQACTREQNRICTCRPGWYCALSKQEGCRLCAPLRKCRPGFGVARPGTETSDVVCKPCAPGTFSNTTSSTDICRPHQICNVVAIPGNASMDAVCTSTSPTRSMAPGAVHLPQPVSTRSQHTQPTPEPSTAPSTSFLLPMGPSPPAEGSTGD"
3,0.0106,"T1-T4-10 (Fc fusion, also called T1c-Fc-T4c; IL-17RA/RC-Fc-TNFR2) LRLLDHRAPVCSQPGLNCTVKNSDCLDDSWIHPRNLTPSSPKDLQIQLHFAHTQQGDLVPVAHIEWTLQTDASILYLEGAELSVLQLDTNERLCVRFEFLSKLRHHHRRWRFTFSHFVVDPGQEYEVTVHHLPKPIPDGDPNHQSKNFLVPDCEHPRMKVTTPCMSSALPWLNVSADGDNVHLVLNVSEEQHFGLSLYWNQVQGPPKPRWHKNLTGPQIITLNHTDLVPCLCIQVWPLEPDSVRTNICPFREDPRAHQNLWQAARLRLLTLQSWLLDAPCSLPAEAALCWRAPGGDPCQPLVPPLSWENVTVDKVLEFPLLKGHPNLCVQVNSSEKLQLQECLWADSLGPLKDDVLLLETRGPQDNRSLCALEPSGCTSLPSKASTRAARLGEYLLQDLQSGQCLQLWDDDLGALWACPMDKYIHKTGIEGRMDRNTGRGGEEKKKEKEKEEQEERETKTPECPSHTQPLGVFLFPPKPKDTLMISRTPEVTCVVVDVSQEDPEVQFNWYVDGVEVHNAKTKPREEQFNSTYRVVSVLTVLHQDWLNGKEYKCKVSNKGLPSSIEKTISKAKGQPREPQVYTLPPSQEEMTKNQVSLTCLVKGFYPSDIAVEWESNGQPENNYKTTPPVLDSDGSFFLYSRLTVDKSRWQEGNVFSCSVMHEALHNHYTQKSLSLSLGKGGGGSGGGGSGGGGSLELPAQVAFTPYAPEPGSTCRLREYYDQTAQMCCAKCPPGQHAKVFCTKTSDTVCDSCEDSTYTQLWNWVPECLSCGSRCSSDQVETQACTREQNRICTCRPGWYCALSKQEGCRLCAPLSKCRPGFGVARPGTETSDVVCKPCAPGTFSNTTSSTDICRPHQICNVVAIPGNASMDAVCTSTSPTRSMAPGAVHLPQPVSTRSQHTQPTPEPSTAPSTSFLLPMGPSPPAEGSTGD"
4,0.0126,"T1-T4-08 (Fc fusion, also called T1-T4-8; T1c-Fc-T4a) LRLLDHRAPVCSQPGLNCTVKNSDCLDDSWIHPRNLTPSSPKDLQIQLHFAHTQQGDLVPVAHIEWTLQTDASILYLEGAELSVLQLDTNERLCVRFEFLSKLRHHHRRWRFTFSHFVVDPGQEYEVTVHHLPKPIPDGDPNHQSKNFLVPDCEHPRMKVTTPCMSSALPWLNVSADGDNVHLVLNVSEEQHFGLSLYWNQVQGPPKPRWHKNLTGPQIITLNHTDLVPCLCIQVWPLEPDSVRTNICPFREDPRAHQNLWQAARLRLLTLQSWLLDAPCSLPAEAALCWRAPGGDPCQPLVPPLSWENVTVDKVLEFPLLKGHPNLCVQVNSSEKLQLQECLWADSLGPLKDDVLLLETRGPQDNRSLCALEPSGCTSLPSKASTRAARLGEYLLQDLQSGQCLQLWDDDLGALWACPMDKYIHKTGIEGRMDRNTGRGGEEKKKEKEKEEQEERETKTPECPSHTQPLGVFLFPPKPKDTLMISRTPEVTCVVVDVSQEDPEVQFNWYVDGVEVHNAKTKPREEQFNSTYRVVSVLTVLHQDWLNGKEYKCKVSNKGLPSSIEKTISKAKGQPREPQVYTLPPSQEEMTKNQVSLTCLVKGFYPSDIAVEWESNGQPENNYKTTPPVLDSDGSFFLYSRLTVDKSRWQEGNVFSCSVMHEALHNHYTQKSLSLSLGKGGGGSGGGGSGGGGSLELPAQVAFTPYAPEPGSTCRLREYYDQTAQMCCAKCSPGQHAKVFCTKTSDTVCDSCEDSTYTQLWNWVPECLSCGSRCSSDQVETQACTREQNRICTCRPGWYCALSKQEGCRLCAPLRKCRPGFGVARPGTETSDVVCKPCAPGTFSNTTSSTDICRPHQICNVVAIPGNASMDAVCTSTSPTRSMAPGAVHLPQPVSTRSQHTQPTPEPSTAPSTSFLLPMGPSPPAEGSTGD"

# Source: patent EP4682164A1 (Curogen Technology Co., Ltd., dated 2026)
